From the supplement of paper PMC10598134
± gives the standard deviation.

Test: collision cross section of modified peptide (TIMS, N2, iRT-aligned); higher = larger / more extended gas-phase ion
In short: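 Values are averages of 1–3 technical replicates of the most abundant feature for each charge state. Collision cross section was obtained from the Mason-Schamp equation after 1/K0 calibration with three reference ions and run-wise alignment to the median iRT peptide deviation. Synthetic peptide pools (iRT standard spiked 1:40) were separated on a 120-min nanoflow C18 gradient at 60 °C, analysed on a timsTOF Pro/HT (dda-PASEF, nitrogen, ~2.4 mbar) and identified with MaxQuant.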

[1] = charge state: 2, modification: Formyl
[2] = charge state: 3, modification: Formyl
[3] = charge state: 2, modification: Biotin
[4] = charge state: 2, modification: Acetyl (K)
[5] = charge state: 3, modification: Acetyl (K)
[6] = charge state: 3, modification: HexNAc (ST)
[7] = charge state: 2, modification: Glutarylation
[8] = charge state: 3, modification: Glutarylation
[9] = charge state: 2, modification: Methyl (K)
[10] = charge state: 3, modification: Methyl (K)
[11] = charge state: 2, modification: Malonyl
[12] = charge state: 2, modification: Nitro (Y)
[13] = charge state: 2, modification: Butyryl
[14] = charge state: 3, modification: Butyryl
[15] = charge state: 2, modification: HexNAc (ST)
[16] = charge state: 2, modification: Trimethyl (K)
[17] = charge state: 3, modification: Trimethyl (K)
[18] = charge state: 2, modification: Crotonyl
[19] = charge state: 3, modification: Crotonyl
[20] = charge state: 3, modification: Biotin
[21] = charge state: 2, modification: GlyGly (K)
[22] = charge state: 3, modification: GlyGly (K)
[23] = charge state: 2, modification: Succinyl
[24] = charge state: 3, modification: Succinyl

Sequence: IHVQSSSDSSDEPAEKR [_IHVQSSSDSSDEPAEK(Formyl)R_]
- collision cross section [1]: 447.23 Å²
- collision cross section [2]: 491.34 ± 2.1 Å²

Sequence: TVSKVDDFLANEAK [_TVSK(Biotin)VDDFLANEAK_]
- collision cross section [3]: 445.28 ± 0.73 Å²

Sequence: HELQANCYEEVKDR [_HELQANCYEEVK(Acetyl (K))DR_]
- collision cross section [4]: 446.57 Å²
- collision cross section [5]: 495.42 ± 1.4 Å²

Sequence: TTLTSDESVKDHTTAGR [_TTLTS(HexNAc (ST))DESVKDHTTAGR_]
- collision cross section [6]: 545.39 ± 0.18 Å²

Sequence: VDVEVPDVSLEGPEGKLK [_VDVEVPDVSLEGPEGK(Gluratylation)LK_]
- collision cross section [7]: 465.13 ± 4.5 Å²
- collision cross section [8]: 502.24 Å²

Sequence: SSGPGGQNVNKVNSK [_SSGPGGQNVNK(Methyl (K))VNSK_]
- collision cross section [9]: 397.83 ± 2.2 Å²
- collision cross section [10]: 442.38 ± 4.2 Å²

Sequence: TPNLYIYSKK [_TPNLYIYSK(Malonyl)K_]
- collision cross section [11]: 383.2 ± 0.78 Å²

Sequence: GVPRGVHLGSQGLQR [_GVPR(Methyl (R))GVHLGSQGLQR_]
- collision cross section (charge state: 3, modification: Methyl (R)): 492.74 ± 2.1 Å²

Sequence: GNDISSGTVLSDYVGSGPPK [_GNDISSGTVLSDY(Nitro (Y))VGSGPPK_]
- collision cross section [12]: 466.4 ± 0.42 Å²

Sequence: GYGVIFANGNR [_GY(Phospho (Y))GVIFANGNR_]
- collision cross section (charge state: 2, modification: Phospho (Y)): 364.42 ± 0.064 Å²

Sequence: GEVGAGAGPGAQAGPSAKR [_GEVGAGAGPGAQAGPSAK(Acetyl (K))R_]
- collision cross section [4]: 420.33 ± 2.6 Å²
- collision cross section [5]: 478.86 ± 2.4 Å²

Sequence: LQLEIDQKK [_LQLEIDQK(Acetyl (K))K_]
- collision cross section [4]: 364.82 ± 0.76 Å²

Sequence: LDHLAEKFR [_LDHLAEK(Propionyl)FR_]
- collision cross section (charge state: 3, modification: Propionyl): 442.11 ± 0.59 Å²

Sequence: LQEKVESAQSEQK [_LQEK(Butyryl)VESAQSEQK_]
- collision cross section [13]: 419.43 ± 0.77 Å²
- collision cross section [14]: 504.21 ± 1.9 Å²

Sequence: LGSASSSHGSIQESHK [_LGS(HexNAc (ST))ASSSHGSIQESHK_]
- collision cross section [6]: 519.96 ± 0.18 Å²

Sequence: QGNAVTLGDYYQGR [_QGNAVT(HexNAc (ST))LGDYYQGR_]
- collision cross section [15]: 432.99 ± 0.62 Å²

Sequence: LFVGGIKEDTEEHHLR [_LFVGGIK(Acetyl (K))EDTEEHHLR_]
- collision cross section [4]: 494.34 Å²
- collision cross section [5]: 543.04 ± 0.75 Å²

Sequence: VGVEVPDVNIEGPEGKLK [_VGVEVPDVNIEGPEGK(Trimethyl (K))LK_]
- collision cross section [16]: 479.14 ± 17 Å²
- collision cross section [17]: 530.81 ± 6.1 Å²

Sequence: IQQELQTAKK [_IQQELQTAK(Crotonyl)K_]
- collision cross section [18]: 386.16 ± 0.79 Å²
- collision cross section [19]: 431.2 ± 1.6 Å²

Sequence: LQEKVESAQSEQK [_LQEK(Biotin)VESAQSEQK_]
- collision cross section [3]: 433.03 ± 0.23 Å²
- collision cross section [20]: 526.98 ± 0.34 Å²

Sequence: GTVPDDAVEALADSLGKK [_GTVPDDAVEALADSLGK(GlyGly (K))K_]
- collision cross section [21]: 485.77 ± 1.3 Å²
- collision cross section [22]: 534.99 ± 1.1 Å²

Sequence: ASAISIKLGSSK [_ASAISIK(Gluratylation)LGSSK_]
- collision cross section [7]: 376.68 ± 0.1 Å²

Sequence: LDEKENLSAK [_LDEK(GlyGly (K))ENLSAK_]
- collision cross section [21]: 379.07 ± 1.5 Å²
- collision cross section [22]: 437.31 ± 1.9 Å²

Sequence: SITHSTVGSKGEK [_SITHSTVGSK(Succinyl)GEK_]
- collision cross section [23]: 392.73 ± 1.4 Å²
- collision cross section [24]: 442.37 ± 2.9 Å²

Sequence: YEEIVKEVSTYIK [_YEEIVK(Malonyl)EVSTYIK_]
- collision cross section [11]: 438.59 ± 1.6 Å²

Sequence: DTPTSAGPNSFNKGK [_DTPTSAGPNSFNK(Biotin)GK_]
- collision cross section [3]: 428.73 ± 1.1 Å²
- collision cross section [20]: 478.46 Å²

Sequence: PSVGSQSNQAGQGKR [_PSVGSQSNQAGQGK(Butyryl)R_]
- collision cross section [13]: 416.92 ± 1.1 Å²
- collision cross section [14]: 475.14 ± 7.3 Å²

Sequence: SYHLQIVTK [_SY(Nitro (Y))HLQIVTK_]
- collision cross section [12]: 345.14 ± 0.74 Å²
- collision cross section (charge state: 3, modification: Nitro (Y)): 449.3 ± 1.2 Å²

Sequence: SDDESSQKDIK [_SDDESSQK(Malonyl)DIK_]
- collision cross section [11]: 372.43 ± 0.63 Å²

Sequence: VDIDAPDVSIEGPDAKLK [_VDIDAPDVSIEGPDAK(Gluratylation)LK_]
- collision cross section [7]: 469.43 ± 1.5 Å²

Sequence: DKALPLEAEVAPVK [_DK(Butyryl)ALPLEAEVAPVK_]
- collision cross section [13]: 418.05 ± 4.9 Å²

Sequence: SGKFTQQDIDEAK [_SGK(Methyl (K))FTQQDIDEAK_]
- collision cross section [9]: 408.84 ± 1.9 Å²
- collision cross section [10]: 468.01 ± 3.6 Å²

Sequence: AGQKLIDVNHYAK [_AGQK(Formyl)LIDVNHYAK_]
- collision cross section [1]: 428.61 ± 0.79 Å²
- collision cross section [2]: 474.19 ± 2.1 Å²

Sequence: SGFGKFER [_SGFGK(Biotin)FER_]
- collision cross section [3]: 352.97 Å²

Sequence: THLGEALAPLSK [_THLGEALAPLS(HexNAc (ST))K_]
- collision cross section [15]: 397.68 ± 0.13 Å²
- collision cross section [6]: 475.05 ± 25 Å²

Sequence: ANLEKAQAELVGTADEATR [_ANLEK(Succinyl)AQAELVGTADEATR_]
- collision cross section [23]: 479.08 ± 0.78 Å²
- collision cross section [24]: 580.29 ± 0.37 Å²

Sequence: VPTTEKPTVTVNFR [_VPTTEK(Butyryl)PTVTVNFR_]
- collision cross section [13]: 428.57 ± 0.24 Å²
- collision cross section [14]: 508.36 ± 2.4 Å²

Sequence: DAIHFYNKSLAEHR [_DAIHFYNK(hydroxyisobutyryl)SLAEHR_]
- collision cross section (charge state: 3, modification: hydroxyisobutyryl): 512.82 ± 2.8 Å²

Sequence: DHLSDKESK [_DHLSDK(Crotonyl)ESK_]
- collision cross section [18]: 361.16 ± 11 Å²

Sequence: DSINFLDHINGKK [_DSINFLDHINGK(Butyryl)K_]
- collision cross section [14]: 471.81 Å²

Sequence: SPSDSGYSYETIGKTTK [_SPSDSGYSYETIGK(Succinyl)TTK_]
- collision cross section [23]: 453.06 ± 1.1 Å²
- collision cross section [24]: 530.11 ± 3 Å²

Sequence: ANEKTESSSAQQVAVSR [_ANEK(Crotonyl)TESSSAQQVAVSR_]
- collision cross section [18]: 431.52 ± 7.9 Å²
- collision cross section [19]: 536.98 ± 2.1 Å²

Sequence: TGPPGSTGSR [_TGPP(Hydroxyproline)GSTGSR_]
- collision cross section (charge state: 2, modification: Hydroxyproline): 312.97 ± 0.79 Å²

Sequence: SNEEGSEEKGPEVR [_SNEEGSEEK(Trimethyl (K))GPEVR_]
- collision cross section [16]: 400.43 Å²
- collision cross section [17]: 464.15 ± 1.8 Å²

Sequence: VLTANSNPSSPSAAKR [_VLTANSNPSSPSAAK(Formyl)R_]
- collision cross section [1]: 421.8 ± 0.8 Å²
- collision cross section [2]: 501.92 ± 27 Å²

Sequence: SITHSTVGSKGEK [_SITHSTVGSK(Methyl (K))GEK_]
- collision cross section [9]: 402.47 ± 1.2 Å²
- collision cross section [10]: 466.28 ± 2.9 Å²

Sequence: GDAGEPGRPGSPGK [_GDAGEP(Hydroxyproline)GRPGSPGK_]
- collision cross section (charge state: 3, modification: Hydroxyproline): 446.53 ± 1.3 Å²

Sequence: ASNAAVKLAESK [_ASNAAVK(Methyl (K))LAESK_]
- collision cross section [9]: 380.84 ± 0.65 Å²
- collision cross section [10]: 450.44 ± 4.8 Å²

Sequence: FLQEFYQDDELGKK [_FLQEFYQDDELGK(Formyl)K_]
- collision cross section [1]: 444.03 ± 0.77 Å²

Sequence: TQAYQDQKPGTSGLR [_TQAYQDQK(Methyl (K))PGTSGLR_]
- collision cross section [9]: 422.44 Å²
- collision cross section [10]: 472.98 ± 2.7 Å²

Sequence: GTVPDDAVEALADSLGKK [_GTVPDDAVEALADSLGK(Crotonyl)K_]
- collision cross section [18]: 456.44 ± 0.38 Å²
- collision cross section [19]: 536.14 Å²

Sequence: VDIDAPDVSIEGPDAKLK [_VDIDAPDVSIEGPDAK(Trimethyl (K))LK_]
- collision cross section [16]: 465.65 ± 1.2 Å²
- collision cross section [17]: 534.07 ± 1.8 Å²

Sequence: TLDEILQEKK [_TLDEILQEK(Gluratylation)K_]
- collision cross section [7]: 387.75 ± 3.2 Å²
- collision cross section [8]: 452.89 ± 2.4 Å²
